Consider 32 molecules from patent publication US20240279318A1 (NANJING LEGEND BIOTECH, published 2024).

B1: LD97A (scFv)
scFv: QSALTQPRSVSGSPGQSVTISCAGTSSDVGSENYVSWYQQHPGKAPKLMIYQVNKRASGVPDRFSGSKSGNTASLTISGLQAEDEADYYCASYRSSAHNIVFGGGTKLTVLGGGGSGGGGSGGGGSEVQLVESGGGLVQPGGSLRLSCAASGFTFSSYAMSWVRQAPGKGLEWVSTINSGTGSPYYADSVKGRFTISRDNSKNTLYLQMNSLRAEDTAVYYCAKNFFDGSWFLGPPAMDYWGQGTLVTVSSHHHHHH
notes: AS170036 VL1VH1 scFv mutein
B2: LD97R (scFv)
scFv: B1 scFv with A97R
notes: AS170036 VL1VH1 scFv mutein
B3: LE32D (scFv)
scFv: B1 scFv with E32D, A97D
notes: AS170036 VL1VH1 scFv mutein
B4: LD97H (scFv)
scFv: B1 scFv with A97H
notes: AS170036 VL1VH1 scFv mutein
B5: LD97T (scFv)
scFv: B1 scFv with A97T
notes: AS170036 VL1VH1 scFv mutein
B6: LD97S (scFv)
scFv: B1 scFv with A97S
notes: AS170036 VL1VH1 scFv mutein
B7: LD97N (scFv)
scFv: B1 scFv with A97N
notes: AS170036 VL1VH1 scFv mutein
B8: LD97K (scFv)
scFv: B1 scFv with A97K
notes: AS170036 VL1VH1 scFv mutein
B9: LD97G (scFv)
scFv: B1 scFv with A97G
notes: AS170036 VL1VH1 scFv mutein
B10: LD97F (scFv)
scFv: B1 scFv with A97F
notes: AS170036 VL1VH1 scFv mutein
B11: AS170036 VL1VH1-57H108S (scFv)
scFv: B1 scFv with A97D, S183H, G234S
notes: also called 24-AS170036 VL1VH1-57H108S
B12: AS170036 VL1VH1-98I108D (scFv)
scFv: B1 scFv with A97D, H98I, G234D
notes: also called 35-AS170036 VL1VH1-98I108D
B13: AS170036 VL1VH1-98I108A (scFv)
scFv: B1 scFv with A97D, H98I, G234A
notes: also called 34-AS170036 VL1VH1-98I108A; 34-AS170036 VL1VH1-98I08A
B14: AS170036 VL1VH1-98Q108A (scFv)
scFv: B1 scFv with A97D, H98Q, G234A
notes: also called 37-AS170036 VL1VH1-98Q108A
B15: AS170036 VL1VH1-57K98Q (scFv)
scFv: B1 scFv with A97D, H98Q, S183K
notes: also called 12-AS170036 VL1VH1-57K98Q
B16: AS170036 VL1VH1-57K108D (scFv)
scFv: B1 scFv with A97D, S183K, G234D
notes: also called 26-AS170036 VL1VH1-57K108D
B17: AS170036 VL1VH1-98F108S (scFv)
scFv: B1 scFv with A97D, H98F, G234S
notes: also called 33-AS170036 VL1VH1-98F108S
B18: AS170036 VL1VH1-57K108S (scFv)
scFv: B1 scFv with A97D, S183K, G234S
notes: also called 27-AS170036 VL1VH1-57K108S
B19: AS170036 VL1VH1-57K108A (scFv)
scFv: B1 scFv with A97D, S183K, G234A
notes: also called 25-AS170036 VL1VH1-57K108A
B20: AS170036 VL1VH1-57M98F (scFv)
scFv: B1 scFv with A97D, H98F, S183M
notes: also called 13-AS170036 VL1VH1-57M98F
B21: AS170036 VL1VH1-57K98F (scFv)
scFv: B1 scFv with A97D, H98F, S183K
notes: also called 10-AS170036 VL1VH1-57K98F
B22: AS170036 VL1VH1-57M108A (scFv)
scFv: B1 scFv with A97D, S183M, G234A
notes: also called 28-AS170036 VL1VH1-57M108A
B23: AS170036 VL1VH1-57M98Q (scFv)
scFv: B1 scFv with A97D, H98Q, S183M
notes: also called 15-AS170036 VL1VH1-57M98Q
B24: AS170036 VL1VH1-57M98I (scFv)
scFv: B1 scFv with A97D, H98I, S183M
notes: also called 14-AS170036 VL1VH1-57M98I
B25: AS170036 VL1VH1-57M108S (scFv)
scFv: B1 scFv with A97D, S183M, G234S
notes: also called 30-AS170036 VL1VH1-57M108S
B26: AS170036 VL1VH1-98F108A (scFv)
scFv: B1 scFv with A97D, H98F, G234A
notes: also called 31-AS170036 VL1VH1-98F108A
B27: AS170036 VL1VH1-57K98I (scFv)
scFv: B1 scFv with A97D, H98I, S183K
notes: also called 11-AS170036 VL1VH1-57K98I
B28: AS170036 VL1VH1-57M108D (scFv)
scFv: B1 scFv with A97D, S183M, G234D
notes: also called 29-AS170036 VL1VH1-57M108D
B29: AS170036 VL1VH1-98Q108D (scFv)
scFv: B1 scFv with A97D, H98Q, G234D
notes: also called 38-AS170036 VL1VH1-98Q108D
B30: AS170036 VL1VH1-98I108S (scFv)
scFv: B1 scFv with A97D, H98I, G234S
notes: also called 36-AS170036 VL1VH1-98I108S
B31: AS170036 VL1VH1-98Q108S (scFv)
scFv: B1 scFv with A97D, H98Q, G234S
notes: also called 39-AS170036 VL1VH1-98Q108S
B32: AS170036 VL1VH1-98F108D (scFv)
scFv: B1 scFv with A97D, H98F, G234D
notes: also called 32-AS170036 VL1VH1-98F108D

Residue numbers refer to the chain shown, from its start.

One test deals with T1, AFP158/HLA-A*02:01 complex (human).
T1 construct: flowed over the chip in SPR; also called AFP158 pro
As to the kind of experiment: SPR, KD ratio to AS170036 VL1VH1.
For the molecule B1, the Affinity increase is 0.5 fold.

With B2, the Affinity increase worked out at 0.5 fold.

As for B3, the Affinity increase amounted to 1.3 fold.

For B4, the Affinity increase was determined as 0.6 fold.

Consider B5, for which the Affinity increase came to 0.7 fold.

In the case of B6, the Affinity increase is 0.6 fold.

For B7, the Affinity increase came out at 1 fold.

As for B8, the Affinity increase came to 0.6 fold.

In the case of B9, the Affinity increase was 0.8 fold.

In the case of B10, the Affinity increase stood at 0.5 fold.

The target in the next test is T1, AFP158/HLA-A*02:01 complex. Kind of test: SPR, scFv captured, pMHC in flow.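 Further: complex injected at several concentrations over crude scFv, association then running-buffer dissociation, KD estimated from kinetic on- and off-rate constants.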
Experimental: (§1) The experiment was carried out as follows. The crude scFv protein were captured onto the sensorchip. Different concentrations (320, 160, 40 nM) of AFP158/HLA-A*02:01 complex flowed over the sensorchip surface, and were allowed to bind the antibody fragment for 100 s followed by injection of the running buffer to allow dissociation of the complex. On-rate (kd) and off-rate (kd) were calculated based on association and dissociation curve, and were used to estimate the equilibrium dissociation constant (KD).
B1 yielded a Kd of 470 nM.

Molecule B2 came in with a Kd of 520 nM. The Kd values of the last two molecules are within 1.5-fold of each other.

As for B3, the Kd came out at 190 nM.

The molecule B4 gave a Kd of 420 nM.

Take B5: the affinity, expressed as Kd, was 360 nM.

Turning to B6, the Kd was found to be 420 nM.

Molecule B7 came in with a Kd of 240 nM.

B8 yielded a Kd of 410 nM.

Turning to B9, binding was characterised by a dissociation constant (Kd) of 310 nM.

In turn, B10 displayed a Kd of 450 nM. This Kd and that of the molecule before are within 1.5-fold of each other.

The target in the next test is T2, AFP158/HLA-A*02:01 complex (human).
T2 construct: flowed as analyte in SPR
As to the kind of experiment: SPR, fold vs AS170036 VL1VH1.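 Further: crude scFv muteins immobilised on a sensor chip, peptide–MHC complex passed over at several concentrations, binding then buffer-driven dissociation, KD estimated from on- and off-rates.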
In turn, B11 gave an Affinity increase of 14.2 fold.

B12: the Affinity increase was 15.8 fold.

On to B13, for which the Affinity increase was found to be 20.1 fold.

On to B14, for which the Affinity increase worked out at 20.5 fold.

B15: the Affinity increase amounted to 13.9 fold.

B16: the Affinity increase was found to be 18.9 fold.

On to B17, for which the Affinity increase came to 8.6 fold.

As to B18, the Affinity increase was 10.1 fold.

B19 returned an Affinity increase of 22.5 fold.

In the case of B20, the Affinity increase came out at 9.3 fold.

In turn, B21 came in with an Affinity increase of 11.8 fold.

In turn, B22 returned an Affinity increase of 13.6 fold.

B23 registered an Affinity increase of 8 fold.

As for B24, the Affinity increase was 5.6 fold.

B25 gave an Affinity increase of 6.8 fold.

Molecule B26 displayed an Affinity increase of 19.1 fold.

Molecule B27 displayed an Affinity increase of 9.1 fold.

In turn, B28 displayed an Affinity increase of 11.8 fold.

For the molecule B29, the Affinity increase is 16.3 fold.

B30 yielded an Affinity increase of 7.7 fold.

Molecule B31 registered an Affinity increase of 8.5 fold.

For B32, the Affinity increase worked out at 17.6 fold.

The target of the next test is T1, AFP158/HLA-A*02:01 complex. Kind of test: SPR, KD ratio to AS170036 VL1VH1.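 Further: crude scFv captured on a sensor chip, peptide–HLA complex passed over at several concentrations, association then buffer dissociation, KD derived from on- and off-rates.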 The source holds these as a separate data set.
Experimental: as §1
With B1, the Affinity increase is 0.5 fold.

Consider B2, for which the Affinity increase is 0.5 fold.

For B3, the Affinity increase was found to be 1.3 fold.

In the case of B4, the Affinity increase worked out at 0.6 fold.

With B5, the Affinity increase came to 0.7 fold.

For the molecule B6, the Affinity increase was found to be 0.6 fold.

For B7, the Affinity increase is 1 fold.

In the case of B8, the Affinity increase came to 0.6 fold.

For the molecule B9, the Affinity increase is 0.8 fold.

Regarding B10, the Affinity increase was 0.5 fold.

A further test concerns the target T2, AFP158/HLA-A*02:01 complex. As to the kind of experiment: SPR, crude scFv captured, pMHC analyte.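 Further: pMHC analyte injected at three concentrations, association phase of one hundred seconds, then running buffer for dissociation, rates fitted from both curves, KD derived from the rates.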
Experimental: as §1
The crude scFv muteins were then subjected to SPR affinity measurement by the method mentioned above.
Turning to B11, the Kd was 16 nM, the koff is 0.0022 s⁻¹ and the kon is 140000 M⁻¹ s⁻¹.

In the case of B12, the Kd was 14 nM, the koff was 0.0053 s⁻¹ and the kon was 370000 M⁻¹ s⁻¹.

With B13, the dissociation constant Kd is 11 nM, the koff was 0.0031 s⁻¹ and the kon is 280000 M⁻¹ s⁻¹.

In the case of B14, binding was put at a Kd of 11 nM, the koff is 0.0028 s⁻¹ and the kon came to 250000 M⁻¹ s⁻¹.

Molecule B15 came in with a Kd of 16 nM, a koff of 0.0025 s⁻¹ and a kon of 160000 M⁻¹ s⁻¹.

In the case of B16, the Kd turned out to be 12 nM, the off-rate (koff) is 0.0022 s⁻¹ and the kon stood at 190000 M⁻¹ s⁻¹.

The molecule B17 displayed a Kd of 26 nM, a koff of 0.0086 s⁻¹ and a kon of 330000 M⁻¹ s⁻¹.

B18 registered a Kd of 22 nM, a koff of 0.0026 s⁻¹ and a kon of 120000 M⁻¹ s⁻¹.

Turning to B19, the Kd was found to be 10 nM, the koff was 0.0018 s⁻¹ and the kon is 180000 M⁻¹ s⁻¹.

In turn, B20 came in with a Kd of 24 nM, a koff of 0.0087 s⁻¹ and a kon of 360000 M⁻¹ s⁻¹.

As to B21, the Kd was 19 nM, the koff came out at 0.004 s⁻¹ and the kon is 210000 M⁻¹ s⁻¹.

On to B22, for which the Kd came out at 17 nM, the koff was 0.004 s⁻¹ and the kon was determined as 240000 M⁻¹ s⁻¹.

For B23, binding was put at a Kd of 28 nM, the koff is 0.0067 s⁻¹ and the kon came out at 240000 M⁻¹ s⁻¹.

B24 gave a Kd of 40 nM, a koff of 0.013 s⁻¹ and an on-rate constant (kon) of 310000 M⁻¹ s⁻¹.

Molecule B25 showed a Kd of 33 nM, a koff of 0.0067 s⁻¹ and a kon of 200000 M⁻¹ s⁻¹.

On to B26, for which the Kd stood at 12 nM, the koff was determined as 0.0039 s⁻¹ and the kon was 330000 M⁻¹ s⁻¹.

For B27, binding was characterised by a dissociation constant (Kd) of 25 nM, the koff turned out to be 0.004 s⁻¹ and the kon came to 160000 M⁻¹ s⁻¹.

For B28, the Kd stood at 19 nM, the koff was determined as 0.0055 s⁻¹ and the kon turned out to be 290000 M⁻¹ s⁻¹.

For B29, the Kd is 14 nM, the koff was 0.0045 s⁻¹ and the kon was found to be 330000 M⁻¹ s⁻¹.

B30 displayed an equilibrium dissociation constant (Kd) of 29 nM, a koff of 0.007 s⁻¹ and a kon of 240000 M⁻¹ s⁻¹.

For B31, the affinity, expressed as Kd, was 27 nM; the koff worked out at 0.0057 s⁻¹; the kon is 220000 M⁻¹ s⁻¹.

B32: the Kd turned out to be 13 nM, the koff turned out to be 0.0057 s⁻¹ and the kon is 450000 M⁻¹ s⁻¹.

In a further test the target is T1, AFP158/HLA-A*02:01 complex. Kind of test: SPR, scFv captured, pMHC in flow.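 Further: complex injected at several concentrations over crude scFv, association then running-buffer dissociation, KD estimated from kinetic on- and off-rate constants.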 This is another data set of the same source.
Experimental: as §1
For B1, the affinity, expressed as Kd, was 470 nM.

B2 yielded a Kd of 520 nM.

B3 showed a Kd of 190 nM.

B4 came in with a Kd of 420 nM. This Kd lies about 2.2-fold higher than the previous one.

As to B5, the Kd was found to be 360 nM.

Turning to B6, binding was characterised by a dissociation constant (Kd) of 420 nM.

For B7, the Kd is 240 nM.

B8 showed a Kd of 410 nM.

Consider B9, for which binding was characterised by a dissociation constant (Kd) of 310 nM.

Regarding B10, the Kd was 450 nM.
